How the values were obtained:
E. coli RARE strain = assay: CAR-TTA coupled production in aerobically growing E. coli RARE; type: cell-based, Escherichia coli; settings: coupled to NiCAR, 2 mM acid, HPLC after 20 h
Procedure: For the CAR-TTA coupled assay, the strains transformed with a plasmid expressing a TTA and a second plasmid expressing a CAR were grown under identical conditions with the addition of 34 μg/mL chloramphenicol (Cm) to maintain the additional plasmid. Further, 0.2 nM aTc and 1 mM IPTG were added to induce protein expression and 2 mM aldehyde, or acid was added at the time of induction. Following induction, the cultures were grown for 20 h at 30° C. while shaking at 1000 RPM with product concentrations measured via supernatant sampling and submission to HPLC.
Finally, to partially address the toxicity of supplemented aldehydes in fermentative contexts, we investigated whether we could couple a TTA to a carboxylic acid reductase (CAR) to create a steady and low-level supply of aldehydes biosynthesized from carboxylic acid precursors. […]
With the promise of the CAR-TTA coupling, we wanted to investigate the generalizability of this pathway to produce a β-OH-nsAA that has a bio-orthogonal conjugation handle. […] Finally, given the potential to produce novel peptide or protein products in cells, we wanted to confirm the activity of this cascade in growing cells, which was successful for all CAR-TTA pairings with MavCAR producing the highest titer determined by product peak area after 20 h (FIG. 20d). […]

[1] = TTA-ADH coupled assay, substrate scope of TTAs on aromatic aldehydes; type: biochemical
Procedure: High-throughput screening of purified TTAs was performed with a TTA-ADH coupled assay using purified TTA and commercially available alcohol dehydrogenase from S. cerevisiae purchased from MilliporeSigma. Aldehyde stocks were prepared in 50-100 mM solutions in DMSO or acetonitrile. Reaction mixtures were prepared in a 96-well plate with 100 μL of 100 mM phosphate buffer pH 7.5, 0.5 mM NADH, 0.4 mM PLP, 15 mM MgCl2, and 100 mM L-Thr with the addition of 0.25 mM to 1 mM aldehyde depending on the background absorbance at 340 nm (Table 4), 10 U ScADH, and 0.25 μM purified TTA unless otherwise specified. Reactions were initiated with the addition of enzyme. […] The following controls were included for every assay: reaction mixture without aldehyde, without TTA, and without enzyme (TTA or ADH). Rates were calculated by identifying the linear region at the beginning of the kinetic run and converting the depletion in absorbance to the depletion of mM NADH using an NADH standard curve.
We specifically selected substrates with ring substituents with different electron withdrawing properties (1, 3, 6, 7, 8), substituent size (12), and aldehyde chain length (15) to compare the activity of the putative TTAs to ObiH. We were also encouraged by the activity of PbTTA and KaTTA on vanillin and protocatechualdehyde which are substrates that would form products like commercially available therapeutic, Droxidopa (FIG. 18).
To explore the possibility that DbTTA and TmTTA are TTAs active on other related aldehydes, we sought to examine their activity with L-Thr and aldehyde substrates with different ring substituent position (2), bulkier, hydrophobic chemistry (10), and aldehyde chain length (14) using the TTA-ADH coupled assay.

B1: PbTTA: L-threonine transaldolase, SEQ ID NO: 16, Parachlamydiales bacterium, MBN2478762.1 (protein, listed as Parachlamydiales bacterium)
chain: METSLKDFETILHLINKEEIDSNDTIHMTANENIMSKLSKHYLKSTLSYRYHVGMFDDQKNLTVSRSCLIKNSLMLRCLSPIFLLEQQAREYVKKMFFAEYADFRPLSGMHTVFCILSTLTKPNDRVYVFTTESVGHAATVSLLKSLGRKVSFIPFCEKKLDIDLEKLSKQILIEKPNAILFDFGTPFYPLPIREIREIVGNDVKMIYDASHVLGLIAGGQFQNPLLEGCDVLIGNTHKTFPGPQKGMILYKNKSLGKEIATEIFKSAISAQHTHHAIALYVTIIEMYIHGKEYANQIIKNNHALSQALINEGFKIFKRKNQFSLSHMIAITGDFPIDHHVACADLHNSNISTNSRILYDFPAVRIGVQEVTRKGMKEKDMVQLAKFFKEIILDRKNISSKIKEFNNKFNSIEYSLDEIYEKLF
In the case of B1, the “β-OH-nsAA production from 4-formyl benzoic acid” value (E. coli RARE strain) is reported as “observed a peak corresponding to the β-OH-nsAA”, the “activity on vanillin and protocatechualdehyde” value ([1]; TTA-ADH coupled assay) is reported as “activity” and the “activity on a set of aromatic aldehyde substrates (substrate scope)” value ([1]; substrates 1, 3, 6, 7, 8, 12, 15) is reported as “high activity on a diverse array of substrates”.

From patent publication US20250215467A1, “L-THREONINE TRANSALDOLASES AND USES THEREOF” (University of Delaware, priority 2022, published 2025)
